The record followed here is paper PMC10115798, “Identification of D-arabinan-degrading enzymes in mycobacteria” (Nature Communications, 2023).

What all share (test): SEC-MALS; SEC-LS: size exclusion chromatography coupled light scattering, Agilent MDS system, Agilent BioSEC 5 1000 Å or GE Superdex 200 column; detector offsets calibrated with BSA, concentrations by refractive index
On the technique in general: Size exclusion chromatography separates by hydrodynamic size, large species first.

Data set [1] addresses Dg_(GH172a) (HMPREF9455_02467), DUF2961 family GH172 exo-D-arabinofuranosidase from Dysgonomonas gadei (Dysgonomonas gadei) (UniProt F5IZF0).
For data set [2], the target named is Dg_(GH172b) (HMPREF9455_02471), DUF2961 family GH172 exo-D-arabinofuranosidase from Dysgonomonas gadei (Dysgonomonas gadei) (UniProt F5IZF4).
Data set [3] deals with Dg_(GH172c) (HMPREF9455_02479), DUF2961 family GH172 exo-D-arabinofuranosidase from Dysgonomonas gadei (Dysgonomonas gadei) (UniProt F5IZG2).
For data set [4], the target named is Myc_(GH172) (GII36_05205), DUF2961 homolog from Candidatus Mycosynbacter amalyticus (Candidatus Mycosynbacter amalyticus).
Data set [5] deals with the molecule itself.

What is called stoichiometry N is the number of molecules, sites or subunits per partner or assembly. “Dg_(GH172a) (HMPREF9455_02467), DUF2961 family GH172 exo-D-arabinofuranosidase from Dysgonomonas gadei (from UniProt F5IZF0 1-386) (enzyme)”: in data set [1], the stoichiometry N was found to be 12. In turn, “Dg_(GH172b) (HMPREF9455_02471), DUF2961 family GH172 exo-D-arabinofuranosidase from Dysgonomonas gadei (from UniProt F5IZF4 1-643) (enzyme)” gave a stoichiometry N in data set [2] of 2.

In data set [3], “Dg_(GH172c) (HMPREF9455_02479), DUF2961 family GH172 exo-D-arabinofuranosidase from Dysgonomonas gadei (from UniProt F5IZG2 1-402) (enzyme)” gave a stoichiometry N of 6. In data set [4], “Myc_(GH172) (GII36_05205), DUF2961 homolog from Candidatus Mycosynbacter amalyticus (enzyme)” gave a stoichiometry N of 3.

B1: Noc_(GH172) (O3I_017420), DUF2961 family GH172 enzyme from Nocardia brasiliensis (enzyme, UniProt K0EX55 1-342, looked up)
chain: MTPPRRSELWLLDDTRTRSVSAENPTGAPGGGARATTGTGAHAARLLGPGWKISPSIVLGDGETATLADVSGPGVLRHCWLTTDRAALRELTLRMYWDDAAEPAIDVPLGDFFCNGWDELALVDSEMVVVAPAGGLNSYWPMPFRRRARITLENHCGRSVPVYYQITYGEEDVPGEAGYLHARWSRSAPLGSPAVHTLLDTGPARGRYVGTYLAIRPGAPRWWGEGEMKFYLDGDDEYPTLCGTGTEDYFGGAWNFDMDGKYRTYSTAYLGLPQALPADEIYQAHQRFGMYRWHVHDPICFHRELRVTVQGLGWRDSDTYLPLEDAEIATTVWWYQEVPPSG
notes: O3I_017420, DUF2961 homologue, Nocardia brasiliensis; codon-optimized gene bought from Twist Biosciences; also called GH172Noc; source: E. coli BL21-DE3, purified (IMAC, size exclusion chromatography)
As for B1, the “stoichiometry N” value in data set [5] came to 3.
